Interaction score data for 2 molecules are collected here from article PMC10397247.

The target of one experiment is T1, 4H3112-bH.
T1 chain: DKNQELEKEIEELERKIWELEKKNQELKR
As to the kind of experiment: two-hybrid library CCNG1.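 Note: natural log of median RNA to DNA barcode read ratio; higher means stronger binding.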

The target of the next experiment is T2, 4H3185-bH.
T2 chain: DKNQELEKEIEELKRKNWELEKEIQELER
Briefly: two-hybrid library CCNG1.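 Note: natural log of median RNA to DNA barcode read ratio; higher means stronger binding.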

The target in another experiment is T3, 4H319-bA.
T3 chain: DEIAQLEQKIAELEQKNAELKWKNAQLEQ
Briefly: two-hybrid library CCNG1.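 Note: natural log of median RNA to DNA barcode read ratio; higher means stronger binding.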

For a further experiment, the target named is T4, 4H331-bH.
T4 chain: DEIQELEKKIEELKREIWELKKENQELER
Briefly: two-hybrid library CCNG1.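 Note: natural log of median RNA to DNA barcode read ratio; higher means stronger binding.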

The target of the next experiment is T5, 4H3354-bH.
T5 chain: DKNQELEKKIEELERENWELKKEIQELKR
As to the kind of experiment: two-hybrid library CCNG1.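 Note: natural log of median RNA to DNA barcode read ratio; higher means stronger binding.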

A further experiment addresses T6, 4H338-bH.
T6 chain: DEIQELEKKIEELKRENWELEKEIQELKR
As to the kind of experiment: two-hybrid library CCNG1.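 Note: natural log of median RNA to DNA barcode read ratio; higher means stronger binding.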

The next experiment deals with T7, 4H3427-bH.
T7 chain: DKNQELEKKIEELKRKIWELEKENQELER
Briefly: two-hybrid library CCNG1.

A further experiment addresses T8, 4H346-bH.
T8 chain: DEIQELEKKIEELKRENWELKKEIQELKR
As to the kind of experiment: two-hybrid library CCNG1.

In the next experiment the target is T9, 4H3782-bH.
T9 chain: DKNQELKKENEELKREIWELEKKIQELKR
As to the kind of experiment: two-hybrid library CCNG1.

The next experiment concerns the target T10, 4H3855-bH.
T10 chain: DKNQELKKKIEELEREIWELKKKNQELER
Briefly: two-hybrid library CCNG1.

For the next experiment, the target named is T11, 4H3926-bH.
T11 chain: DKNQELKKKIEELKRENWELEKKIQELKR
Briefly: two-hybrid library CCNG1.

The target in a further experiment is T12, 4H4001-bH.
T12 chain: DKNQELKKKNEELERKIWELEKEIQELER
As to the kind of experiment: two-hybrid library CCNG1.

A further experiment deals with T13, 4H4073-bH.
T13 chain: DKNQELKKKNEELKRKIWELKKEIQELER
As to the kind of experiment: two-hybrid library CCNG1.

Another experiment addresses T14, 4H454-bH.
T14 chain: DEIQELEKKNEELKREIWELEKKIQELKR
Briefly: two-hybrid library CCNG1.

For a further experiment, the target named is T15, 4H457-bH.
T15 chain: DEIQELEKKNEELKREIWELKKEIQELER
Briefly: two-hybrid library CCNG1.

A further experiment addresses T16, 4H568-bH.
T16 chain: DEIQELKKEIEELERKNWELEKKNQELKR
As to the kind of experiment: two-hybrid library CCNG1.

For the next experiment, the target named is T17, 4H575-bH.
T17 chain: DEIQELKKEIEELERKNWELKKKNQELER
As to the kind of experiment: two-hybrid library CCNG1.

The target in another experiment is T18, 4H607-bH.
T18 chain: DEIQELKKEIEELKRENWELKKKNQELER
As to the kind of experiment: two-hybrid library CCNG1.

A further experiment deals with T19, 4H683-bH.
T19 chain: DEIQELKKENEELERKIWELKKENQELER
As to the kind of experiment: two-hybrid library CCNG1.

The target in the next experiment is T20, 4H687-bH.
T20 chain: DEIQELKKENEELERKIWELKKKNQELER
As to the kind of experiment: two-hybrid library CCNG1.

The target in a further experiment is T21, 4H717-bH.
T21 chain: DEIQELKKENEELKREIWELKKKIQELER
Briefly: two-hybrid library CCNG1.

The target of the next experiment is T22, 4H72-bH.
T22 chain: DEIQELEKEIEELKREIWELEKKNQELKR
As to the kind of experiment: two-hybrid library CCNG1.

In the next experiment the target is T23, 4H780-bH.
T23 chain: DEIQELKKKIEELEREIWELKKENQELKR
Briefly: two-hybrid library CCNG1.

For another experiment, the target named is T24, 4H797-bH.
T24 chain: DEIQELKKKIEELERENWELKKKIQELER
Briefly: two-hybrid library CCNG1.

In a further experiment the target is T25, 4H855-bH.
T25 chain: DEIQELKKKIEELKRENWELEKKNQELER
As to the kind of experiment: two-hybrid library CCNG1.

For a further experiment, the target named is T26, 4H883-bH.
T26 chain: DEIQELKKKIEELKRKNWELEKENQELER
Briefly: two-hybrid library CCNG1.

Another experiment addresses T27, 4H908-bH.
T27 chain: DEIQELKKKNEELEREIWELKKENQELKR
Briefly: two-hybrid library CCNG1.

For another experiment, the target named is T28, 4H918-bH.
T28 chain: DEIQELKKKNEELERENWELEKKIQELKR
Briefly: two-hybrid library CCNG1.

The next experiment concerns the target T29, 4H953-bH.
T29 chain: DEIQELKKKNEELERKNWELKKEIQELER
Briefly: two-hybrid library CCNG1.

The next experiment concerns the target T30, 4H967-bH.
T30 chain: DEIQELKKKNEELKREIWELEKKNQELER
Briefly: two-hybrid library CCNG1.

A further experiment has as its target T31, 4H968-bH.
T31 chain: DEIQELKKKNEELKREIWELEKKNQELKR
Briefly: two-hybrid library CCNG1.

Another experiment deals with T32, O4.
T32 chain: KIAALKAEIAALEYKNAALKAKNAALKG
As to the kind of experiment: two-hybrid library CC0. The conditions noted are these: mean of both orientations.

A further experiment has as its target T33, O5.
T33 chain: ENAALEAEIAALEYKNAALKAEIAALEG
Briefly: two-hybrid library CC0. The conditions noted are these: mean of both orientations.

For the next experiment, the target named is T34, O6.
T34 chain: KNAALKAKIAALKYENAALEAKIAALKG
Briefly: two-hybrid library CC0. Conditions: mean of both orientations.

In the next experiment the target is T35, O7.
T35 chain: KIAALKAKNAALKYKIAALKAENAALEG
Briefly: two-hybrid library CC0. The conditions noted are these: mean of both orientations.

Another experiment deals with T36, O8.
T36 chain: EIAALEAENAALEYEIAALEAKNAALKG
As to the kind of experiment: two-hybrid library CC0. Conditions: mean of both orientations.

A further experiment deals with T37, O9.
T37 chain: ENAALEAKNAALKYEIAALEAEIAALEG
As to the kind of experiment: two-hybrid library CC0. Conditions: mean of both orientations.

On to DKNQELEKEIEELERKIWELEKKNQELKR [4H3112-bH], for which the interaction score is 1.18 with 4H3112-bH; -0.575 with 4H3185-bH; -3.07 in the experiment with 4H319-bA; 0.991 in the experiment with 4H331-bH; 0.156 in the experiment with 4H3354-bH; 1.72 with 4H338-bH. Also, the interaction score is 1.07 with 4H3427-bH; 0.584 in the experiment with 4H346-bH; 0.0549 with 4H3782-bH; 0.754 with 4H3855-bH; 0.42 in the experiment with 4H3926-bH; 0.971 in the experiment with 4H4001-bH. In addition, the interaction score was 1.57 with 4H4073-bH; 0.624 in the experiment with 4H454-bH; -1.29 with 4H457-bH; -0.443 with 4H568-bH; -0.872 with 4H575-bH; 0.768 with 4H607-bH. Further, the interaction score with 4H683-bH is 0.204; with 4H687-bH, -0.713; with 4H717-bH, -0.259; with 4H72-bH, 0.428; with 4H780-bH, 0.704; with 4H797-bH, -0.951. Further, the interaction score with 4H855-bH is -2.78; in the experiment with 4H883-bH, 0.871; with 4H908-bH, -0.43; with 4H918-bH it was 0.72; in the experiment with 4H953-bH, -0.641; with 4H967-bH, 1.34. Further, in the experiment with 4H968-bH, the interaction score turned out to be 1.05.
Take KIAALKAEIAALEYKNAALKAKNAALKG [O4]: the interaction score was -2.65 in the experiment with O4; -2.68 with O5; -2.42 with O6; -2.75 with O7; -2.63 with O8; -2.71 with O9.
